Experimental findings from the supplement of paper PMC6379048 are described below.

Common to all, as to assay: Kd (EC50 corrected by depletion factor)
One series deals with T1, MCM4 (UniProt P33991).
T1 sequence: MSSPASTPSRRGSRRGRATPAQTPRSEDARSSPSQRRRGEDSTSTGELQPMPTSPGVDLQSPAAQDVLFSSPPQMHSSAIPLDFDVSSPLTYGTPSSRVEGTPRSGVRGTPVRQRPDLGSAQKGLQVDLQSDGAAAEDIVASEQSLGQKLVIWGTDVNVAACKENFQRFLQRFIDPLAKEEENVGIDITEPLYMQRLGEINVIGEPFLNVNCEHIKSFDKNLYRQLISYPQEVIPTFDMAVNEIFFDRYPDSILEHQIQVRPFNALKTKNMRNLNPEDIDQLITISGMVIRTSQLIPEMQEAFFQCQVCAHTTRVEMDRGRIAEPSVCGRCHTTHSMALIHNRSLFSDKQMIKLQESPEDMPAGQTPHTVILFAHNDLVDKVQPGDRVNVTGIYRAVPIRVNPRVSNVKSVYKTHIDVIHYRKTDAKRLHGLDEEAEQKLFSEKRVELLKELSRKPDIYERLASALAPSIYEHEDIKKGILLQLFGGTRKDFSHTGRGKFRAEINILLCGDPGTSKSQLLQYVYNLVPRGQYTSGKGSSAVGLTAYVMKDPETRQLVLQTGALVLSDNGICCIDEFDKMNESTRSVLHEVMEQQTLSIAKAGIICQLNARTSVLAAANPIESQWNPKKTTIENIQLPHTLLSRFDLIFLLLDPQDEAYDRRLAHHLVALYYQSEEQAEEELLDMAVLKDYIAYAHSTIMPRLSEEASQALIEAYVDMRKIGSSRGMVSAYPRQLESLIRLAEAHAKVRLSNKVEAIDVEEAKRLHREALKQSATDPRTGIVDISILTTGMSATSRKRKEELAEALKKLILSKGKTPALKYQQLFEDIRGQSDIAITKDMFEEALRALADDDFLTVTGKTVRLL
The procedure, abridged:
(§1)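 HEK293-FT lysate (2.5 mg protein/well) was pre-incubated 1 h at 4°C with free RNA oligos (0 nM to 30 μM), then 30 min at 4°C with the same 5′-amino-C6 oligos coupled to NHS-Sepharose beads. Bound proteins were quantified by label-free LC-MS/MS in three biological replicates and two independent experiments, and normalised to the water control. EC50 came from a four-parameter log-logistic fit; Kd is EC50 times a protein-dependent depletion factor.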

The target of a further series is MRPL39 (UniProt Q9NYK5). The procedure, abridged: as §1
The target in a further series is MRPL53 (UniProt Q96EL3). The procedure, abridged:
as §1

The target of another series is RPS19 (UniProt P39019). Summed up:
as §1

The next series addresses MRPS2 (UniProt Q9Y399). The procedure, abridged: as §1
A further series deals with MRPS31 (UniProt Q92665). Summed up:
as §1

In a further series the target is T2, MYEF2 (UniProt Q9P2K5).
T2 sequence: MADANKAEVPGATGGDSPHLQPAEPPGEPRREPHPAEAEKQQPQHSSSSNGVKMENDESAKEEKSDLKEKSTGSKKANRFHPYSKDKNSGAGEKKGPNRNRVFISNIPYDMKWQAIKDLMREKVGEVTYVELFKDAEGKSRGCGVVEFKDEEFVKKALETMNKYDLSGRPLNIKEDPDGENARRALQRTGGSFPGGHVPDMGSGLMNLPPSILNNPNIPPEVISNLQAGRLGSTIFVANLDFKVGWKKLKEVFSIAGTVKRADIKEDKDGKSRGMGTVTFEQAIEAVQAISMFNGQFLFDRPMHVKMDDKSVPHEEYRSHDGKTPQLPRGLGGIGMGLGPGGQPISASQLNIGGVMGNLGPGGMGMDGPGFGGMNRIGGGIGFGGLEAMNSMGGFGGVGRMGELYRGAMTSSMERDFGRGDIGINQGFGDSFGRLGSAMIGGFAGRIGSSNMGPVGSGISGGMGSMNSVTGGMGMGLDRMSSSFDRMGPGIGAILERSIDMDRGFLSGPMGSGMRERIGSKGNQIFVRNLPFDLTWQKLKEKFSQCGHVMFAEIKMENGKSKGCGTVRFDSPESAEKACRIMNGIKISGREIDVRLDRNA
Summed up: as §1

A further series addresses T3, PRPF3 (UniProt O43395).
T3 sequence: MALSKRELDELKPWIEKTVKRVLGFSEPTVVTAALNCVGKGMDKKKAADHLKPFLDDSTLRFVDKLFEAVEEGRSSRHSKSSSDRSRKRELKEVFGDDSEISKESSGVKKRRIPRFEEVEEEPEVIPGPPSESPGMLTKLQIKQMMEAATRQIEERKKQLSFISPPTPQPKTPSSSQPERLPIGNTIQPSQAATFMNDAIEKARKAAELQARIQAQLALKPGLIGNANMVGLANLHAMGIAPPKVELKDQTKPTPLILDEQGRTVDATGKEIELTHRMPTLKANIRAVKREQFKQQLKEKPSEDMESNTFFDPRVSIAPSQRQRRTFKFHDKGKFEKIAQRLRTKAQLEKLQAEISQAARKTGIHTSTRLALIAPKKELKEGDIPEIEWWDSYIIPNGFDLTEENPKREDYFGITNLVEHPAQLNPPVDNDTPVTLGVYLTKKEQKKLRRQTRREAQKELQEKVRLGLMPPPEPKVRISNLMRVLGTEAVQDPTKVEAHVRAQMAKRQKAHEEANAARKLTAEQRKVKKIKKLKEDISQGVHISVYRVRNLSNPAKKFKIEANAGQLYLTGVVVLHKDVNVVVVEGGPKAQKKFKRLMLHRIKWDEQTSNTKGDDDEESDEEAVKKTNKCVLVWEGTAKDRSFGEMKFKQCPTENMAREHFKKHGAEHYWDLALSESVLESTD
The procedure, abridged:
as §1

As usually defined, the Kd is the equilibrium constant for the complex coming apart. Higher therefore signals lower affinity.

The sequence AAUAAA displayed a Kd with MCM4 of 25.8 nM.
Turning to CUGUCCU, the Kd came out at 101 nM with MRPL39, 100 nM in the series with MRPL53 and 69.9 nM with RPS19.
In the case of UAUUUAU, the Kd stood at 27.7 nM in the series with MRPS2, 52.4 nM with MRPS31, 2700 nM in the series with MYEF2 and 2670 nM with PRPF3.
